Source: paper PMC10244618
Values joined by “and” are separate entries in the source; they are usually repeats but may differ in a detail not shown here. Identical values can stand only once.

B1: NF2 (merlin) isoform 7, human, full length (507 aa, lacks exons 2-3 = isoform-1 residues 39-121; exon-16 C-terminus), P35240-4 (parent)
chain: MAGAIASRMSFSSLKRKQPKTFTVRIVTMDAEMEFNCEVKKQILDEKIYCPPEASVLLASYAVQAKYGDYDPSVHKRGFLAQEELLPKRVINLYQMTPEMWEERITAWYAEHRGRARDEAEMEYLKIAQDLEMYGVNYFAIRNKKGTELLLGVDALGLHIYDPENRLTPKISFPWNEIRNISYSDKEFTIKPLDKKIDVFKFNSSKLRVNKLILQLCIGNHDLFMRRRKADSLEVQQMKAQAREEKARKQMERQRLAREKQMREEAERTRDELERRLLQMKEEATMANEALMRSEETADLLAEKAQITEEEAKLLAQKAAEAEQEMQRIKATAIRTEEEKRLMEQKVLEAEVLALKMAEESERRAKEADQLKQDLQEAREAERRAKQKLLEIATKPTYPPMNPIPAPLPPDIPSFNLIGDSLSFDFKDTDMKRLSMEIEKEKVEYMEKSKHLQEQLNELKTEIEALKLKERETALDILHNENSDRGGSSKHNTIKKPQAQGRRPICI

Variants of: B1
Assay: reverse yeast two-hybrid deep mutational scan (rY2H-seq): NF2 isoform 7 mutant library as bait mated with wild-type prey strains; selection on medium lacking adenine for non-interacting pairs; NextSeq paired-end sequencing; enrichment vs …
Settings: with EMILIN1 (elastin microfibril interfacer 1), Q9Y6C2; yeast diploids after mating (RBait_S3 x RPrey_S3), 30 °C, selection for reporter genes on NB agar; human tyrosine kinase ABL2 co-expressed as the active kinase …; HIGHER = WEAKER BINDING (the opposite of display enrichments): higher = stronger loss of interaction: reverse Y2H selects yeast in which bait and prey do NOT interact (growth without adenine), so a …; hits-only table; scale: rY2H score; numbering: uniprot, sequence starts at 1

| Variant | enrichment |
| --- | --- |
| E111A | 4.1 |
| N416T | 2.76 |
| A128V | 1.56 |
| A319L | 2.38 and 3.16 |
| D369K | 2.69 and 1.81 |
| E264A | 12.8 |
| R383A | 1.5 and 2.77 |
| I329K | 1.63 and 1.9 |
| K170L | 4.44 |
| S294K | 4.59 and 3.72 |
| A381V | 1.43 |
| L389E | 2.12 |

Continued, values first:

| enrichment | Variant |
| --- | --- |
| 4.03 | E377A |
| 6.7 | N416A |
| 7.65 | I141L |
| 2.08 | T332S |
| 2.65 | M446V |
| 3.15 | E282L |
| 3.06 | D425L |
| 1.69 | F173S |
| 3.71 | L371E |
| 1.84 | S483E |
| 1.95 and 2.03 | K340L |
| 5.46 | A381M |
| 6.77 | W175E |
| 4.36 | W175A |

Same assay, conditions: with NF2 C-terminal domain (wild type; homomeric NF2-NF2 interaction), P35240; yeast diploids after mating (RBait_S3 x RPrey_S3), 30 °C, selection for reporter genes on NB agar; human ABL2 co-expressed as the kinase-dead K35M mutant …; HIGHER = WEAKER BINDING (the opposite of display enrichments): higher = stronger loss of interaction: reverse Y2H selects yeast in which bait and prey do NOT interact (growth without adenine), so a …; hits-only table; partner unresolved; scale: rY2H score; numbering: uniprot, sequence starts at 1

| Variant | enrichment |
| --- | --- |
| N457E | 2.32 |
| S423L | 2.58 |
| A128V | 1.47 |
| K191Y | 1.46 |
| L301A | 1.81 |
| P163E | 2.31 |
| E309K | 1.83 |
| E83K | 18.2 |
| A247E | 6.62 |
| D369K | 2.61 |
| E351K | 2.95 and 2.99 |
| S489K | 2.15 |
| K496S | 1.44 |
| H159A | 2.04 |
| I329K | 2.98 and 2.25 |
| S294K | 4.08 |
| N482T | 2.43 |
| N482E | 1.99 |
| S73P | 2.96 |
| K126L | 1.8 and 2.78 |
| R248L | 2.23 |

The next lines start with the values.

| enrichment | Variant |
| --- | --- |
| 1.7 | Q261E |
| 3.64 | T336D |
| 2.49 | K260A |
| 3.9 | P19E |
| 3.8 | A358K |
| 1.75 | A140G |
| 2.45 | M133E |
| 1.55 | L466C |
| 2.55 and 1.66 | A298E |
| 2.27 | Q236A |
| 1.43 | Y70H |
| 4.46 | H479A |
| 2.37 | M122A |
| 2.24 | S421K |
| 3.75 | E245K |
| 10 | A406L |
| 3.43 | N482A |
| 4.56 and 2.51 | L389K |
| 1.97 | W175E |
| 2.08 | W175A |
| 1.71 and 3.21 | I160K |
| 1.61 | I160A |

Same assay, conditions: with KDM1A (lysine-specific histone demethylase 1A; the table's label AOF2 is a gene synonym of KDM1A), O60341; yeast diploids after mating (RBait_S3 x RPrey_S3), 30 °C, selection for reporter genes on NB agar; human ABL2 co-expressed as the kinase-dead K35M mutant …; HIGHER = WEAKER BINDING (the opposite of display enrichments): higher = stronger loss of interaction: reverse Y2H selects yeast in which bait and prey do NOT interact (growth without adenine), so a …; hits-only table; scale: rY2H score; numbering: uniprot, sequence starts at 1

| Variant | enrichment |
| --- | --- |
| T336L | 2.98 |
| P410R | 1.58 |
| E187K | 1.65 |
| N457T | 2.31 |
| S423E | 9.11 |
| A59S | 4.04 |
| K191Y | 1.65 |
| A319L | 4.6 |
| G501C | 1.59 |
| A358L | 7.18 |
| I392E | 3.78 |
| N492E | 1.69 |
| Y67A | 3.02 |
| A247E | 7.37 |
| E282K | 1.54 |
| D369K | 2.15 |
| E34A | 1.5 |
| E351K | 1.66 and 2.35 |
| F173V | 2.3 |
| R383A | 1.83 |
| H159E | 3.49 |
| E337L | 1.6 |
| N482T | 2.3 |
| N482L | 2.71 |
| R248C | 1.52 |

Results, then the variant that gave them:

| enrichment | Variant |
| --- | --- |
| 2 | P504R |
| 3.38 | N457S |
| 2.42 | D411C |
| 1.58 | E344V |
| 3.64 | E472A |
| 2.89 | R384E |
| 3.64 and 8.74 | R25E |
| 1.69 | P192S |
| 1.49 | C506S |
| 2.39 | D476E |
| 1.9 | E309L |
| 1.76 | G78K |
| 5.07 | D271K |
| 1.73 | S414E |
| 3.17 | S414L |
| 14.7 | R227E |
| 3.95 | F173S |

| enrichment | Variant |
| --- | --- |
| 1.88 | L408K |
| 2.33 | L315P |
| 4.11 | L315S |
| 1.77 | T168P |
| 2.37 | T168D |
| 3.3 | M122A |
| 1.84 | H159P |
| 3.21 | V352S |
| 3.29 | K340L |
| 2.15 | L389K |
| 1.45 | L389S |
| 2.59 | W175C |
| 1.87 | I160C |
| 4.85 | K460L |
| 3.88 | K356L |
| 3.69 | K15E |
| 1.66 | K15L |

Same assay, conditions: with KDM1A (lysine-specific histone demethylase 1A; the table's label AOF2 is a gene synonym of KDM1A), O60341; yeast diploids after mating (RBait_S3 x RPrey_S3), 30 °C, selection for reporter genes on NB agar; human tyrosine kinase ABL2 co-expressed as the active kinase …; HIGHER = WEAKER BINDING (the opposite of display enrichments): higher = stronger loss of interaction: reverse Y2H selects yeast in which bait and prey do NOT interact (growth without adenine), so a …; hits-only table; scale: rY2H score; numbering: uniprot, sequence starts at 1

| Variant | enrichment |
| --- | --- |
| E111A | 1.51 |
| R364A | 4.28 and 3.15 |
| D411A | 2.4 and 1.53 |
| R89K | 1.9 |
| E444K | 1.5 |
| L301A | 2 |
| P163E | 4.05 |
| A316E | 2.69 |
| E309K | 1.97 |
| A358L | 6.77 |
| R253Q | 1.48 |
| R335S | 1.9 |
| I404D | 7.96 |
| H159E | 1.44 |
| H159A | 1.39 |
| I329A | 1.81 |
| I329K | 2.5 |
| L389E | 1.87 |
| K330L | 2.59 |
| K356E | 1.91 |
| K356A | 2 |

Second part, the variant after the results:

| enrichment | Variant |
| --- | --- |
| 1.85 | P504R |
| 2.15 | D162Y |
| 3.89 | F200S |
| 43 | M225K |
| 1.61 | A59V |
| 2.84 | T308I |
| 1.99 and 1.77 | M401K |
| 1.62 | M401E |
| 1.58 | Q82D |
| 1.51 | E309L |
| 1.91 | A140G |
| 1.51 | D299E |
| 5.27 | G78K |
| 1.99 | M446I |
| 21.9 | M133E |
| 3.71 | R335L |
| 1.54 | D130A |
| 2.43 | S489L |
| 1.9 | A65V |
| 3.93 and 3.02 | H159P |
| 1.8 and 1.81 | S483E |
| 2 | L390E |
| 2.61 | S421K |
| 1.59 | E121A |
| 1.47 | E245Y |
| 3.84 and 4.07 | I160K |
| 3.58 | S55F |
| 22.9 | K126E |

Same assay, conditions: with PIK3R3 (phosphatidylinositol 3-kinase regulatory subunit gamma), Q92569; yeast diploids after mating (RBait_S3 x RPrey_S3), 30 °C, selection for reporter genes on NB agar; human tyrosine kinase ABL2 co-expressed as the active kinase …; HIGHER = WEAKER BINDING (the opposite of display enrichments): higher = stronger loss of interaction: reverse Y2H selects yeast in which bait and prey do NOT interact (growth without adenine), so a …; hits-only table; scale: rY2H score; numbering: uniprot, sequence starts at 1

| Variant | enrichment |
| --- | --- |
| R364A | 2.87 |
| G501C | 1.45 |
| A316E | 2.22 and 3.1 |
| E309K | 3.02 |
| A358L | 4.62 |
| R253Q | 1.57 |
| D369K | 4.98 |
| H159E | 6.11 |
| I329A | 1.64 |
| I329K | 1.89 |
| A381V | 1.6 |

Results, then the variant that gave them:

| enrichment | Variant |
| --- | --- |
| 2.52 | A59V |
| 2.17 | M401K |
| 2.14 | M401E |
| 3.79 | S414L |
| 36.3 | R227E |
| 4.73 and 5.14 | F173S |
| 3.26 | S483E |
| 1.55 | K340L |
| 8.42 | A381M |
| 2.43 | L389K |
| 1.68 | I160C |
| 10.6 | K460L |
| 7.08 | K356L |
